Source: IntAct's records for PubMed 10713164

Molecular target: ncor2_human NCOR2 (UniProt Q9Y618)

Question: With “Recombining binding protein suppressor of hairless (Homo sapiens), Q06330 E233A;E234A;F235A” as the substance, how does the “effect of a mutation on the interaction” value read?
Answer: decreasing interaction strength
